A protein production outcome set (Wang et al. 2014)

Assay: label from the status in PepcDB records

Row | Sequence | protein production
1 | MSRAEKSTAEQSGHIQHGVRKAAGVVFMVFGTMCFASKSIFVKWAYEQGAQPEAVLLYRQLFAAPLFWLIFIVYRSKLPAKPEKAEIFKACAAGLLCFFLSPLLDFIGLHGVSATVERMIVMSYPMFVLIITAFVNKKMVSGKTFAAILLVNAGLFLAVGGWDVQALEANLSGAFLILLSAVAYAAYLVVAGGLVRQIGGIRMNAYGMSAASLAMAGYALLRSLREQPGIVLSYPPAMYGFFMIIAAVTTVIPFLFMLEGMKRIGAERGAVISMIGPVLTIFGGVLFLNERLTPVQWLGCLLVHLTVSLLEYRK | failed
2 | MAKFIMVVGTSSNSGKTVLVSGICRMLSNKGYKVAPFKSQNMSLNSRVSVEDGEIAVAQYTQAMAARAEPSVHFNPILLKPKGNFVSQVIVHGNPYEDKDYNEYRSKKDDFLVKIKESIDYLDKNYDYVVIEGAGSCCEINLLNDDIANLKVAEIAGADAILVSDIDRGGVFASIYGTVQLLPENWKKLLKGFVINKFRGNIDVLKDGFEKIEELTNIPVIGTIPYDETLVLPEEDSQALDGKRLEHHHHHH | failed
3 | MKASCSSFTCQSADGKHFLGRTYDEYGDISANKVSIIPRGYEISLTFMGNKENNKQIVKYAIVGMNVDMFDTPFLTEGMNEHGLMISLLFFPHFTQYNSKSNAEYDVNLGLLLPFVLGKCKNIEEAVALLQKINPVDEPESQMELPCHYLISDKTGESIVVEPLADGLKIYRNEMGVLTNSPTYEWHKINLRNYLGISNLAKETQVVNGYKIEELGEGTGYLGIPGDYTPVSRFVRLAFSKNYMPEPQNEIDAVNKMFNIFETVDVPEGVIYTPPLRTPYHEKTLCTSVMCSESLKYYFSTSTNCRICCVDLNKAMNNNSKELINIDIPFEQDILTLN | failed
4 | MVINLNDKQTKTSKEGLISVSHPLAAKIGKDVLDQGGNAMDAVIAIQLALNVVEPFASGIGGGGYLLYYEQSTGSITAFDARETAPEHVDKQFYLDDSGEYKSFFDMTTHGKTVAVPAIPKLFDYIHKRYAKLSLEDLINPAIELAIEGHAANWATEKYSRQQHARLTKYHETAQVFTHENQYWREGDWIVQPELGKTFQILREQGFNAFYKGDIAKQLVNVVKACGGTITLEDLAKYDIQIKAPISATFKDYDIYSMGPSSSGGITVIQILKLLEHVDLPSMGPRSVDYLHHLIQAMHLAYSDRAQYLADDNFHEVPVQSLIDDDYLKARSTLIDSNKANIDIEHGVVSDCISHTDVEENHTETTHFCVIDKEGNIASFTTSIGMIYGSGITIPGYGVLLNTTMDGFDVVDGGINEIAPYKRPLSNMAPTIVMYHGKPILTVGAPGAISIIASVAQTLINVLVFGMDIQQAIDEPRIYSSHPNRIEWEPQFSQSTILALIAHGHAMEHKPDAYIGDVHGLQVDPTTYEASGGSDDTREGTVMGGEVLVIRKQPLPYRQMYDSDGFRLYFNDVQLPLLADQVRWMHDKYWVDESVVRIIFPEVSAHIEDLRSYENAGENYIDIAWLARKYAYQVTLKDDGLYLTDDTYTSVKRNTNAYYRYDRDSITR | failed
5 | MNETINYDSLLILSVVAFFTPFLVSRLKRVNIPYQVGEIFIGILLGKSFLNIIKPDIWILFLSNLGLAYLMFLSGLAIDFDELKPKEGELLKDSKLFTSIKMFIVSIITAIILSFTLKFAGISEGYIFFALLFTAAAPGLLVPILKTKHIINSSYGQTLLVFGIITQLVSLIGVTFVASVAVNGITLKSFTFLIIFAVAIVVYFLSKIIFKVHDFSTIAFKNLHLSVRGAFVLVLVLVAVAEKVDSEIILGSFLAGMVFSLIVGKAKEEISHQLDVVGYGFLIPIFFIMVGVNVDLKAVVENPQSIAKIPLFILIFFLVKFIPSLLLKKKYGKRNSLAASMLLTAQLSLVIVGSQMALNLGYITAADYSAFVVTTVITCIFFPILFEKLITLNGDTNDTVEEDEKIIIREVLVSSQWYIGKALKDCKLPTGCRIFSMVRDDHEFMPNANTILEENDLVILAGVKHDVNETLNMLSTCDLTLPEE | failed
6 | MIDMFPMEKGEEQETYELIVRVFHKYVAPVYSENGVARFLGMLSPEGLSEMNNGKNSFVIVARDQSKIIGMISVINDSHIALFFVSPRYQGKGIGKNILDEAIKNCLNRNPELSAVTVSSSPNSKSFYEEAGFEVIGNEINEEGLRFTPMRKLLRQLEHHHHHH | failed
7 | TSSTIFSGVAIYVNGYTDPSAEELRKLMMLHGGQYHVYYSRSKTTHIIATNLPNAKIKELKGEKVIRPEWIVESIKAGRLLSYIPYQLYT | not failed
8 | MSVWRRRAEGREPTQAQRLFRGLVREWLWVSLILLPLTAVLSLSHGLALNNLFYDNLRRFTPLPVDPRILLVTIDDYSLQQLGRWPWPRAIHGQLLDRLSAAEAKGVLFDVILSEPGSTVENDTRLAAALCRAGNVFLPVLRQGVARYGQDIEEIPPVPLLRNCARGLGHINAEADADGTVRSVYLREGPMLAPRAQLTWLLYQLTEAEPAFPHMPGPGEPRVAQGWLRSNPVRIPFISADAGFPSVPYVSVLRGEVPPELLRDRLILVGSTAPGLGDRYVTPQSGSQGTTPGVEIQANLLNGLLQHRSVVALGQWSGMLLSMALTAVLLGLLLWRPRHALWITLGCMGLGLAGSVLMLRLGYWWSPVASLLGMLLAYLIWNWRRLSVILAYFGWELARLDSEPKVLPERRRSQAPAGDVLQGQIVALEQALSRTRDTRRFIADGLEYLPVATLISDPDGKILLANRNAREVFAHSLVGEGLIAQLAALGYPGLTEPALYPRLEQLPAVEFRDVQQRSLRMELAPLLPVDSDTAIGWLLSLTDLSVERDAEQQRSVLLRFLSHDLRAPHSAILALLDVQRHQPATPRQVYGQIEQQVRRALALTEAFVQLAKAESEAYQFEPSMFAMLVLDAFDQATTLAQLKDIHLEHDLDDEAEGLVLADQSLLTRALFNLLENAIKYSPVESRVSVRVSCTPGWLRCEISDEGRGIDAADLPQLFGQYQRFASAKGIDGLGLGLSMVKAVVDRHQGRISCQSVVGRGSCFILELPLLEE | failed
9 | SLRTKSWTDDLKVCNQTGVGEAINQIYKDDGRRCEGYESRDKKCLCISDNNTSLYAILSGHNGVTVAENALQEMAAELLLGQLNVCNTDEAVKELIRQSFMSVEKGYFDSINPHVATKTAIQLHLSADGMNQYEISQQFENVLQKLDSLNNALSVGSSAVLALIHRSHLYLGNIGNCRALLCKTDEHDTLTVTQLSVDHNLLNAEEAARLFRLGLMAQNFEGVPLYSTRCIGNYLGKAGYKDCNFLSSATAEPVIFEPEIVGGIQITPACRFLVLMSSGLCRALHEIFPGDASTGNRELVRMISEEFQNQSTLGGVAQSVVHRIVQAHHDTYMQLVEEHRSVTFNSRDDVTLLIRNFNYA | not failed
10 | MRTLLFLHLLGAAIWVGGHLVLALGILPGALRRRDPQAIRAFEQVYERIGIPALLLQVVSGLWLASLWLPFDHWFGATPVARALQLKLLLLAATAALGVHARLRLIPNLDAESLPKLGWHIAAITLVGLGFVAVGQSFRFGGAF | failed
11 | MNLKDLLAHRENLMDSAKRARSAITDDMDPADAAQAVENVKSIISEIESTDEAIAARRGVSDVTQKLKGLTITERGTENDSAASRSLGEHFVKAAGDRLKNQAAGAHIEYSVPEYQVKEDAHSSPKDLVEGWGTFYQR | not failed
12 | MLMSEIGQIAAILATAREVAVATHIIPDGDCLGSMLGLTLALRKRGTSVIAINADPVPEMFQYLPGQETIIDPDQVTSMPPLLVMVDCTDMERAGKGFSNWQQRVEKIINIDHHVSNTRFGHLNLVDSRAAATAELIYAVLEQIPATFTPEVATCLYTALATDTGSFQYENCTARTLRLAASLLEKGADMPLIREHLWESKPLNSIRLLAATLPTLTLAYEGRVAWMTVSRAALEANGARPEHAEGLVNYPRSIAGVEVGMLFRELPDGKVKVSLRSKKIVDVNRVAALFGGGGHRRAAGCTLDGDLDTVVARVVAAAGEAL | failed
13 | MASNRCAVCKILNETCAPMCIYAPHFPSNDASFKVIIQIFGAVNVCNILDNLEFPEQREIAANCLRYAAEARIRNPISGCHDMILQYKNILNNVEQDIESAVNELGTYVGHDQVPKFYDLPMPDDFLMTPVSLDSFIAKIKSLNEVQKNQLMQLPTAADNAPMIMNSIFGKMEDKNLKDGHRADGASTSAGK | failed
14 | MLCCLRIENFALIDHLELDLQAGLMVLTGETGAGKSIILDALDLALGGKATARLIRAKNDQGDATGERAFIEATFSLTPSIKQWLQSQDIDLLEDETVICSRELSLTRTGLRSRSRVNGIILNQGLMAELRAQLLEITAQGQTVELLIPERQRILLDSYGGSQVQQQRQLVNLAYQTYLKAKQLLESRRTSEQERLQRLDLLQYQLQELRDAHLEDSEELETLQQEGDRLSHVVELQQLSYQAHQILYQNDDPETPAVADLLGEAENLLKEMVDYDTQLNGILD | failed
15 | MTFLPTSLKFFSSLSRASGAVWTEATKRKAPHKPLLLLAVLDLVHRGVITTPFIAVSGDLVELNELFNLYWRRIIPLGQTSSIAFPFSRLAREPFWELVPQPGKNITDAVINNTSSVSYLRKYALGAKLDDGLFRVMASGEGREALREALLLSCFSPEASAQLREQSIINREAFDYSRLLEEQAHLPLVKEIVEADNYRPTVRDQAFRKVVTSAYDHRCALCGIRIVTPDGHTVVEAAHIVPWSRSQNDDIRNGMALCRTCHWGFDEGMLGVSDNYTVITSRSIGIDPNFPGLLQTLSGRGIIPPADPDKFPAREYLAEHRRAWRL | failed
16 | MKSEFYQGKIKQYDATKGFGFIGGLEQDVFFHISDFPLEEGEPKRNERVKFMVVENNGKFKAVKIQRVVDQSAKAKKSRAVENNTSITSALLSNFKK | failed
17 | MGHHHHHHSHMGTKRPAMLDNEADGNKTMIELSDNENPWTIFLETVDPELAASGATLPKFDKDHDVMLFLKMYDPKTR | failed
18 | MTEYNIALVGFGGVNRALAQLIAERNQAWKKQLGFSLKIVGISDLFLGSIVASQGLDAGLLSKLPATKGALAQLPGGQVEALNEQVIKDSGADIIAEATFTNPVDGEPASTFCRWALEQGKHVVTTNKGPIALHSAELKALAQRNLAAFEYEGAVMSGTPVIRMAKQSLAGSGLLGFEGILNGTSNFVLTRMEAGLGFAEAVAEAQALGYAEADPSADVEGFDVRLKVVILANELLDAQLTVSDVSCRGISGLTVKDLEQARAEGARWKLIGSAQRLADGSLQASVEPRLLPLAHPLAGIGGAINAVSFNTELLGAVTVSGPGAGRIETAFALLSDIIHIHQSRLAR | failed
19 | MNNRFNGTSIKQYSTTFLLLGSMASAAHVRAADEFHPNSFNSEALKQSMIAEFALAYDDVPTAIHNYTVLAIKSNSTSIKQRALDIALEYNDLKAALDIATHWVVQEPEDVPAMFYLAHIALRAHEYKLAANTLDKILNIDPNADLEQILAGIAPESKEDRENLLETLKTSKEKENPSILVMIAGLEAQNGHLQDALINTNRALRKRPKVTGFILMKANLLIGLNDIEGAQKWYAKSSKRHRDNLDIRLAEARFLIRHNESELALKKLEDIIKTWPDAEDAKFIAGLTSIDLKQYEKAEQYLVDLRYSAKYQNDAYYYLAVNAERKQHFETAKAYYRLVDGSLYVVSRRNLVSIFEKQGNLNDALRFLTQERVNYPQHASFLYQAQAEILKKTGNKKAALRLLDEAIKNISDDPELIYAEVLLLDPFSDRDKLDRTLKQLLLIEPNSPTYLNAYAYTLALQNRRLDEARQYAELALEYAPEQASILDTLGYIAFLQNDYAAAATSLGKAYTLSNNVNIGIRFAKALYMQGNLTEFSEVLQQLKEKNANDPQLKQLDALILPTVTKKS | failed
20 | MEQIILDIIEFLKQFSYFGVVLALTFEFIPAEVVLPMVGYWVYEGDMNFWLAVLAGTLGGTTGPLTLYALGYYGGRPLLIKYGKYFFIKEEQIQKADDFFEKYGPVVAFVGRFVPGVRTLISVPCGKAKMNIWKFSIYTFVAMFPLTTLYVYCEMKLGPHWEKAADVVGQYMLPILVVVVIIVGGILIYKFMKKRNRSESI | failed
21 | MQARWIGNMMFHVRTDSNHDVLMDTKEEVGGKDAAPRPLELVLTGLMGCTGMDVVSILRKMKVIDQMKDFRIEIEYERTEEHPRIFTKVHLKYIFKFDGEPPKDKVEKAVQLSQEKYCSVSAILKCSSKVTYEIVYEN | not failed
